Measured values published in US12606817B2, “Methods of creating and screening DNA-encoded libraries” (X-Chem, Inc., priority 2009, dated 2026).

Assay: solubility of headpiece in organic solvent (DMF)
Type: physicochemical
Conditions: DMF/water reaction mixture
Method: In order to prepare a “library of 1,” a model compound, 5-(4,6-dichlorotriazinyl-aminofluorescein) (DTAF; Anaspec) (FIG. 12), was coupled to the amino group of HP-1. DTAF structurally represents a trichlorotriazine scaffold with one amino compound coupled. To form a library, trichlorotriazine scaffolds can be derivatized with a diversity of building blocks at each of the three chlorine positions. DTAF also provides a fluorescent label to the model library. The reaction (10 μl) was set up as follows. To 5 μl of 400 μM HP-1 dissolved in water, 2 μl of 750 mM borate buffer, pH 9.5, and 1 μl of DMF were added. DTAF was dissolved in DMF to 50 mM and 2 μl was added to the reaction. Final concentrations of the HP-1 and DTAF were 200 μM and 10 mM, respectively, thus generating a 50-fold excess of DTAF. The final DMF concentration was 30%. […] The reaction was allowed to proceed at 4° C. for 16-20 hours. The reaction mixture was then diluted with water to 30-50 μl and desalted on a Zeba spin column (Pierce). No further purification was completed at this point.

Substance: HP-1: hairpin oligonucleotide headpiece (SEQ ID NO: 51) with amino-PEG2000 linker on C5-amino-modified dT (DNA TCCTGGCTGAGGCGAGAGTTTTTCTCTCGCCTCAGCCAGGACC; amino-PEG2000 linker on C5-amino-modified dT; modified_base (21)..(21) dT-C6-NH)
- stayed soluble in up to % DMF: up to 90 % DMF
